T1: R9-PCP
T1 chain: RRRRRRRRRXDEXLI

T2: Antp-PCP
T2 chain: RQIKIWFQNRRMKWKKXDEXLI

T3: cFΦR4-PCP (not fully specified)
T3 chain: FXRRRRQXDEXLI


Experiments:
R9-PCP = target: T1, R9-PCP
Antp-PCP = target: T2, Antp-PCP
cFΦR4-PCP = target: T3, cFΦR4-PCP

Protein | kcat/KM (R9-PCP) [M⁻¹ s⁻¹] | kcat/KM (Antp-PCP) [M⁻¹ s⁻¹] | kcat/KM (cFΦR4-PCP) [M⁻¹ s⁻¹]
TCPTP (protein) MPTTIEREFEELDTQRRWQPLYLEIRNESHDYPHRVAKFPENRNRNRYRDVSPYDHSRVKLQNAENDYINASLVDIEEAQRSYILTQGPLPNTCCHFWLMVWQQKTKAVVMLNRIVEKESVKCAQYWPTDDQEMLFKETGFSVKLLSEDVKSYYTVHLLQLENINSGETRTISHFHYTTWPDFGVPESPASFLNFLFKVRESGSLNPDHGPAVIHCSAGIGRSGTFSLVDTCLVLMEKGDDINIKQVLLNMRKYRMGLIQTPDQLRFSYMAIIEGAKCIKGDSSIQKRWKELSKEDLSPAFDHSPNKIMTEKYN | 457 | 970 | 2780
VHR (protein) MSGSFELSVQDLNDLLSDGSGCYSLPSQPCNEVTPRIYVGNASVAQDIPKLQKLGITHVLNAAEGRSFMHVNTNANFYKDSGITYLGIKANDTQEFNLSAYFERAADFIDQALAQKNGRVLVHCREGYSRSPTLVIAYLMMRQKMDVKSALSIVRQNREIGPNDGFLAQLCQLNDRLAKEGKLKP | 6240 | 2030 | 2460
SHP2 (protein) AEIESRVRELSKLAETTDKVKQGFWEEFETLQQQECKLLYSRKEGQRQENKNKNRYKNILPFDHTRVVLHDGDPNEPVSDYINANIIMPEFETKCNNSKPKKSYIATQGCLQNTVNDFWRMVFQENSRVIVMTTKEVERGKSKCVKYWPDEYALKEYGVMRVRNVKESAAHDYTLRELKLSKVGQGNTERTVWQYHFRTWPDHGVPSDPGGVLDFLEEVHHKQESIMDAGPVVVHCSAGIGRTGTFIVIDILIDIIREKGVDCDIDVPKTIQMVRSQRSGMVQTEAQYRFIYMAVQHYIETLQRR | 248 | 2210 | 7400
CD45 (protein) YKIYDLHKKRSCNLDEQQELVERDDEKQLMNVEPIHADILLETYKRKIADEGRLFLAEFQSIPRVFSKFPIKEARKPFNQNKNRYVDILPYDYNRVELSEINGDAGSNYINASYIDGFKEPRKYIAAQGPRDETVDDFWRMIWEQKATVIVMVTRCEEGNRNKCAEYWPSMEEGTRAFGDVVVKINQHKRCPDYIIQKLNIVNKKEKATGREVTHIQFTSWPDHGVPEDPHLLLKLRRRVNAFSNFFSGPIVVHCSAGVGRTGTYIGIDAMLEGLEAENKVDVYGYVVKLRRQRCLMVQVEAQYILIHQALVEYNQFGETEVNLSELHPYLHNMKKRDPPSEPSPLEAEFQRLPSYRSWRTQHIGNQEENKSKNRNSNVIPYDYNRVPLKHELEMSKESEHDSDESSDDDSDSEEPSKYINASFIMSYWKPEVMIAAQGPLKETIGDFWQMIFQRKVKVIVMLTELKHGDQEICAQYWGEGKQTYGDIEVDLKDTDKSSTYTLRVFELRHSKRKDSRTVYQYQYTNWSVEQLPAEPKELISMIQVVKQKLPQKNSSEGNKHHKSTPLLIHCRDGSQQTGIFCALLNLLESAETEEVVDIFQVVKALRKARPGMVSTFEQYQFLYDVIASTYPAQNGQVKKNNHQEDKIEFDNEVDKVKQDANCVNPLGAPEKLPEAKEQAEGSEPTSGTEGPEHSVNGPASPALNQGS | 2940 | 22300 | 35100
PTP1B (construct not stated) (protein) MEMEKEFEQIDKSGSWAAIYQDIRHEASDFPCRVAKLPKNKNRNRYRDVSPFDHSRIKLHQEDNDYINASLIKMEEAQRSYILTQGPLPNTCGHFWEMVWEQKSRGVVMLNRVMEKGSLKCAQYWPQKEEKEMIFEDTNLKLTLISEDIKSYYTVRQLELENLTTQETREILHFHYTTWPDFGVPESPASFLNFLFKVRESGSLSPEHGPVVVHCSAGIGRSGTFCLADTCLLLMDKRKDPSSVDIKKVLLEMRKFRMGLIQTADQLRFSYLAVIEGAKFIMGDSSVQDQWKELSHEDLEPPPEHIPPPPRPPKRILEPHN | 14700 | 17400 | 37100
